Positions count from the first letter of the chain named. Names and notes keep the numbering of the source.
B1: KAZ-V44I-A54I-Y138I: KAZ mutant with three amino acid substitutions V44I, A54I and Y138I, SEQ ID NO: 16 (protein)
chain: FTLADFVGDWQQTAGYNQDQVLEQGGLSSLFQALGVSVTPIQKIVLSGENGLKIDIHVIIPYEGLSGFQMGLIEMIFKVVYPVDDHHFKIILHYGTLVIDGVTPNMIDYFGRPYPGIAVFDGKQITVTGTLWNGNKIIDERLINPDGSLLFRVTINGVTGWRLCENILA
B2: KAZ: wild 19 kDa catalytic protein of Oplophorus luciferase (19kOLase), amino acid sequence SEQ ID NO: 2 (protein, listed as Oplophorus gracilirostris)
chain: B1 chain with I44V, I54A, I138Y

Columns and labels:
[1] = Substrate specificities of KAZ mutants (ZZ-fused, crude enzyme), CTZ; type: biochemical; details: for Relative Luminescence Activity CTZ Int. / Relative Luminescence Activity CTZ Imax: ZZ-fused crude enzyme, 1 μg substrate; for Relative Luminescence Activity CTZ Int.: integrated for 60 seconds; for Relative Luminescence Activity CTZ Imax: maximum intensity of luminescence
Protocol: (§1) The coelenterazine analogues used for substrate specificity studies were synthesized by the methods described in publications. Specifically, bis-coelenterazine was synthesized by the method described in Nakamura et al. (1997) Tetrahedron Lett. 38: 6405-6406; furimazine by the method described in Hall et al. (2012) ACS Chem. Biol. […]; and, 6h-coelenterazine, f-coelenterazine and 6h-f-coelenterazine by the methods described in Inouye et al (2013) Biochem. Biophys. Res. Commun. 437: 23-28.
(§2) DTT was added to the crude enzyme solutions obtained in EXAMPLE 17 at a final concentration of 1 mM and the mixtures were allowed to stand in an ice water for more than 5 hours in the same manner as Example 8. A luminescence reaction was started by the addition of 1 μL each of the crude enzyme solutions to 100 μL of TE containing 1 μg of coelenterazine (manufactured by JNC Corp.) or its analogues. The luminescence activities were determined using a luminometer (manufactured by Atto Inc.: AB2200) for 60 seconds, and the maximum intensity of luminescence (Imax) was shown as relative luminescence activity.

[2] = Substrate specificities of KAZ mutants (ZZ-fused, crude enzyme), h-CTZ; type: biochemical; details: 1 μg substrate; for Relative Luminescence Activity h-CTZ Int.: integrated for 60 seconds; for Relative Luminescence Activity h-CTZ Imax: maximum intensity of luminescence
Protocol: as §1, §2

[3] = Substrate specificities of KAZ mutants (ZZ-fused, crude enzyme), 6h-CTZ; type: biochemical; details: for Relative Luminescence Activity 6h-CTZ Int. / Relative Luminescence Activity 6h-CTZ Imax: 1 μg substrate; for Relative Luminescence Activity 6h-CTZ Int.: integrated for 60 seconds; for Relative Luminescence Activity 6h-CTZ Imax: maximum intensity of luminescence
Protocol: as §1, §2

[4] = Substrate specificities of KAZ mutants (ZZ-fused, crude enzyme), bis-CTZ; type: biochemical; details: 1 μg substrate; for Relative Luminescence Activity bis-CTZ Int.: integrated for 60 seconds; for Relative Luminescence Activity bis-CTZ Imax: maximum intensity of luminescence
Protocol: as §1, §2

CHO-K1 cells [5] = assay: Luminescence activity of KAZ mutants expressed in animal culture cells with signal peptide of Gaussia luciferase for secretion; type: cell-based, Chinese hamster; details: pcDNA3-GLsp- vectors; for Relative Luminescence Activity (%, Imax) Cell Extracts / Relative Luminescence Activity (%, Imax) Culture Medium: Table 11, CHO-K1, coelenterazine
Summary of the method: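 CHO-K1 cells were transfected with the KAZ mutant plasmid plus an internal standard vector. After 48 h, culture medium and sonicated cell extracts were collected. 5 μL of each was added to 0.5 μg coelenterazine in 30 mM Tris-HCl pH 7.6, 10 mM EDTA, and luminescence was read for 60 s, with maximum intensity (Imax) expressed as a percentage.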

CHO-K1 cells [6] = assay: Luminescence activity of KAZ mutants expressed in animal culture cells without secretional signal peptide sequence; type: cell-based, Chinese hamster; details: for Relative Luminescence Activity (Imax) Cell Extracts / Relative Luminescence Activity (Imax) Culture Medium: Table 12, pcDNA3- vectors without secretion signal
Protocol: Chinese hamster ovary cell line CHO-K1 was cultured in Ham's F-12 medium (manufactured by Wako Pure Chemical Industries, Ltd.) supplemented with 10% (v/v) fetal bovine serum (manufactured by Biowest Inc.). The CHO-K1 cells were plated in a 6-well plate in 1×10^5 cells/well/2 mL medium (n=2) and cultured in an incubator at 37° C. in 5% (v/v) CO2. After 24 hours, the purified recombinant plasmid was transfected to CHO-K1 cells using a FuGene HD transfection kit (manufactured by Promega Corp.), which was provided for subsequent experiment. Specifically, 1 μg of the recombinant plasmid pGL4.13 [Luc2/sv40], 0.1 μg of the internal standard vector and 3 μL of FuGene HD were added to 100 μL of the medium, which was allowed to stand at room temperature for 15 minutes. Subsequently, 100 μL of the DNA-FuGene complex was added to the cells in the 6 wells. After incubation for 48 hours, the culture medium was collected. On the other hand, the KAZ mutants expressed in the cells were washed 3 times with 3 mL of 1×PBS, then suspended in 1 mL of 1×PBS and disrupted on ice by ultrasonication, which was used as enzyme solutions of the cell-extracts of KAZ mutants.
A luminescence reaction was started by adding 5 μL of the culture media and cell extracts obtained in EXAMPLE 10 to 100 μL of 30 mM Tris-HCl (pH 7.6)-10 mM EDTA (manufactured by Wako Pure Chemical Industries, Ltd.) containing 0.5 μg of coelenterazine (manufactured by INC Corp.). The luminescence activity was determined using a luminometer (manufactured by Atto Inc.: AB2200) for 60 seconds, and the maximum intensity of luminescence (Imax) was defined as a percentage.
The gene fragments of the KAZ mutants with two amino acid substitutions and three amino acid substitutions and nanoKAZ containing the Kozak sequence were digested with restriction enzymes Asp718 and XbaI, and inserted into the Asp718-XbaI site of pcDNA3 vector (manufactured by Invitrogen Inc.) to construct the vectors of pcDNA3-KAZ-V44I, pcDNA3-KAZ-A54I, pcDNA3-KAZ-Y138I, pcDNA3-KAZ-V44I-A54I, pcDNA3-KAZ-V44I-Y138I, pcDNA3-KAZ-A54I-Y138I and pcDNA3-KAZ-V44I-A54I-Y138I.
The culture media of the KAZ mutants with two amino acid substitutions and KAZ mutants with three amino acid substitutions and the enzyme solutions of cell-extracts of KAZ mutants were obtained in the same manner as EXAMPLE 10.
Luminescence activities of the resulting enzyme solutions and enzyme solutions of the cell-extracts of KAZ mutants were determined in the same manner as EXAMPLE 11.

| Molecule | Relative Luminescence Activity CTZ Int. [1] | Relative Luminescence Activity CTZ Imax [1] | Substrate specificity ([1]; coelenterazine versus its analogues) | Relative Luminescence Activity h-CTZ Int. [2] | Relative Luminescence Activity h-CTZ Imax [2] | Luminescence activity compared with dnKAZ with 6h-coelenterazine [3] | Relative Luminescence Activity 6h-CTZ Int. [3] | Relative Luminescence Activity 6h-CTZ Imax [3] | Relative Luminescence Activity bis-CTZ Int. [4] | Relative Luminescence Activity bis-CTZ Imax [4] | Relative Luminescence Activity (%, Imax) Cell Extracts (CHO-K1 cells [5]) | Relative Luminescence Activity (%, Imax) Culture Medium (CHO-K1 cells [5]) | Relative Luminescence Activity (Imax) Cell Extracts (CHO-K1 cells [6]; CHO-K1, coelenterazine) | Relative Luminescence Activity (Imax) Culture Medium (CHO-K1 cells [6]; CHO-K1, coelenterazine) | Luminescence activity compared with wild KAZ when coelenterazine was used as a substrate (CHO-K1 cells [6]; summary of results) | Luminescence activity in the cell extracts, fold higher than wild KAZ (CHO-K1 cells [6]; vectors without a secretion signal, CHO-K1, coelenterazine) | Relative Luminescence Activity (Imax) (%) Cell Extracts (CHO-K1 cells [5]; Table 5, CHO-K1, 48 hours, 5 μL cell extracts, 0.5 μg coelenterazine) | Relative Luminescence Activity (Imax) (%) Culture Medium (CHO-K1 cells [5]; Table 5, CHO-K1, 48 hours, 5 μL culture medium, 0.5 μg coelenterazine) |
| --- | --- | --- | --- | --- | --- | --- | --- | --- | --- | --- | --- | --- | --- | --- | --- | --- | --- | --- |
| B1 | 66.7 | 66.7 | high substrate specificity for coelenterazine | 33.2 | 83.1 | higher luminescence activity than dnKAZ | 11.1 | 12.9 | 11.9 | 13.3 | 16.2% | 1.7% | 56.0 | 0.08 | markedly higher luminescence activities than wild KAZ | 56 fold | – | – |
| B2 | 1.0 | 1.0 | – | 0.7 | 1.1 | – | 0.2 | 0.1 | 0.9 | 0.6 | 0.3% | less than 0.01% | 1.0 | 0.03 | – | – | 0.1% | less than 0.01% |

From US10907134B2, “Mutated genes for the catalytic protein of oplophorus luciferase and use thereof” (JNC CORPORATION, priority 2013, dated 2021)
